Test [1] has as its target T1, FcγRIIB (human, UniProt P31994 43-217, biotin-labeled).
T1 construct: extracellular domain; Bought protein; also called CD32b
T1 sequence (looked up): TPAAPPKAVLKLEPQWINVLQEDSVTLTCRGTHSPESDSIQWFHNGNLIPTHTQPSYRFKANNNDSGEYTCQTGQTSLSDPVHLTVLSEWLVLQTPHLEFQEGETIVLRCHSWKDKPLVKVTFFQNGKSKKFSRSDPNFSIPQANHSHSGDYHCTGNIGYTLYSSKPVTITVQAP
The test is described as follows: ELISA, coated antibody, biotin-FcγR.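 As to Absorbance value: antibody coated at 2 µg/mL at 100 µL per well.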 In general terms: In an ELISA, binding on a coated surface is turned into a signal by an enzyme label.

In test [2] the target is T2, FcγRI (human, UniProt P12314 16-292, biotin-labeled).
T2 construct: extracellular domain; Bought protein; also called CD64
Put plainly: ELISA, coated antibody, biotin-FcγR.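 As to Absorbance value: antibody coated at 2 µg/mL at 100 µL per well.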

Test [3] concerns the target T3, FcγRIIIA^158V (human, UniProt P08637 17-208, biotin-labeled).
T3 construct: extracellular domain; Bought protein; also called RIIIAV; CD16a 158V
Put plainly: ELISA, coated antibody, biotin-FcγR.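 As to Absorbance value: antibody coated at 2 µg/mL at 100 µL per well.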

Test [4] has as its target T4, FcγRIIIA^158F (human, UniProt P08637 17-208, biotin-labeled).
T4 construct: extracellular domain; Bought protein; also called RIIIAF
Put plainly: ELISA, coated antibody, biotin-FcγR.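 As to Absorbance value: antibody coated at 2 µg/mL at 100 µL per well.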

The target of test [5] is T5, FcγRIIA^131H (human, UniProt P12318 34-217, biotin-labeled).
T5 construct: extracellular domain; Bought protein; also called RIIAH
T5 sequence (looked up): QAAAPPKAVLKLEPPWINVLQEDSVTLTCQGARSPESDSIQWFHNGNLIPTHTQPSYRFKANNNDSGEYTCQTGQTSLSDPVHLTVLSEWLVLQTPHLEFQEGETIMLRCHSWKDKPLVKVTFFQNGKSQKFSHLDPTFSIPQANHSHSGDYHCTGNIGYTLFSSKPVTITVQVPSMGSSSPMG
The test is described as follows: ELISA, coated antibody, biotin-FcγR.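 As to Absorbance value: antibody coated at 2 µg/mL at 100 µL per well.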

Test [6] addresses T6, FcγRIIA^131R (human, UniProt P12318 34-217, biotin-labeled).
T6 construct: extracellular domain; Bought protein; also called RIIAR
T6 sequence (looked up): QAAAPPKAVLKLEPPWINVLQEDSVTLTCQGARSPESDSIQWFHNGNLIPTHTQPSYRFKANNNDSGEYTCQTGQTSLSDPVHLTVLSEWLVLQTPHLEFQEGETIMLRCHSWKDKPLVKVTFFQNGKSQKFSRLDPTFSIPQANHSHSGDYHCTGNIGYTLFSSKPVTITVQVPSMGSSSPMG
Put plainly: ELISA, coated antibody, biotin-FcγR.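 As to Absorbance value: antibody coated at 2 µg/mL at 100 µL per well.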

In test [7] the target is T1, FcγRIIB. Put plainly: ELISA; relative affinity to FcγRIIB over that to FcγRIIA131R.

T4 sequence (P08637 17-208): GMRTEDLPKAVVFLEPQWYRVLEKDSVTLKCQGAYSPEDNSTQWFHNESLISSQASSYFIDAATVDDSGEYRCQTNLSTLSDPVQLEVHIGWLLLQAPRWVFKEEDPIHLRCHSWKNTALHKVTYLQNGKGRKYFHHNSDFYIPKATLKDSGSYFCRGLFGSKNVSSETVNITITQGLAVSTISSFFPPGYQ
T2 sequence (P12314 16-292): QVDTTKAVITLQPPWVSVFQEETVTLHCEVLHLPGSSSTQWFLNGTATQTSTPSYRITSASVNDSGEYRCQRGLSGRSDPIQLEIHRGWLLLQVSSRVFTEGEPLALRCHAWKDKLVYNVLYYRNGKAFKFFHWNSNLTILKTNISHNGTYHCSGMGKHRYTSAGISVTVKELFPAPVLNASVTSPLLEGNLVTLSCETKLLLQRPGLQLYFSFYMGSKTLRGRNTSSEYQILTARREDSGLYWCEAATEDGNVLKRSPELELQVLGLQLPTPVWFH
T3 sequence (P08637 17-208 F176V): as the sequence (P08637 17-208) above, with F160V counted along it

B1: anti-human OX40 IgG2 antibody Mut_18 (P233G/S267E) (antibody)
heavy: QVQLQESGPGLVKPSGTLSLTCAVSGGSISSSIWWSWVRQPPGKGLEWIGEIHHSGNTNCNPSLKSRVTISIDKSKNQFSLKLTSVTAADTAVYYCARAGTGTTLDYWGQGTLVTVSSASTKGPSVFPLAPCSRSTSESTAALGCLVKDYFPEPVTVSWNSGALTSGVHTFPAVLQSSGLYSLSSVVTVPSSNFGTQTYTCNVDHKPSNTKVDKTVERKCCVECPPCPAPGVAGPSVFLFPPKPKDTLMISRTPEVTCVVVDVEHEDPEVQFNWYVDGVEVHNAKTKPREEQFNSTFRVVSVLTVVHQDWLNGKEYKCKVSNKGLPAPIEKTISKTKGQPREPQVYTLPPSREEMTKNQVSLTCLVKGFYPSDIAVEWESNGQPENNYKTTPPMLDSDGSFFLYSKLTVDKSRWQQGNVFSCSVMHEALHNHYTQKSLSLSPGK
light: EIVLTQSPGTLSLSPGERATLSCRASQSVSGDYLAWYQQKLGQAPRLLIYGASIRATGIPDRFSGSGSGTDFTLTISKLEPEDFAVYYCQQYGSSPLTFGGGTKVEIKRTVAAPSVFIFPPSDEQLKSGTASVVCLLNNFYPREAKVQWKVDNALQSGNSQESVTEQDSKDSTYSLSSTLTLSKADYEKHKVYACEVTHQGLSSPVTKSFNRGEC
notes: Substitutions in Eu numbering; entries include an unstated signal peptide
For the molecule B1, in test [1], the Absorbance value was found to be 0.78 A650, the “Increased factor of RIIB binding compared with wild-type IgG2” value (shortened to “Increased factor of RIIB binding”) came to 10.4 fold and the “Relative binding affinity RIIB/G1” value turned out to be 1.04 ratio. Also, in test [2], the Absorbance value was 0.14 A650 and the “Relative binding affinity RI/G1” value turned out to be 0.05 ratio. Also, in test [3], the Absorbance value turned out to be 0.08 A650 and the “Relative binding affinity RIIIAV/G1” value amounted to 0.09 ratio. In test [4], the Absorbance value was 0.09 A650 and the “Relative binding affinity RIIIAF/G1” value amounted to 0.47 ratio. Moreover, in test [5], the Absorbance value amounted to 0.38 A650 and the “Relative binding affinity RIIAH/G1” value amounted to 0.67 ratio. Also, in test [6], the Absorbance value was 0.26 A650 and the “Relative binding affinity RIIAR/G1” value was determined as 1 ratio. In test [7], the RIIB/RIIAR worked out at 1.03 ratio.

B2: anti-human OX40 IgG2 antibody Mut_21 (S267V/S298G/L328W) (antibody, name in EU numbering)
heavy: QVQLQESGPGLVKPSGTLSLTCAVSGGSISSSIWWSWVRQPPGKGLEWIGEIHHSGNTNCNPSLKSRVTISIDKSKNQFSLKLTSVTAADTAVYYCARAGTGTTLDYWGQGTLVTVSSASTKGPSVFPLAPCSRSTSESTAALGCLVKDYFPEPVTVSWNSGALTSGVHTFPAVLQSSGLYSLSSVVTVPSSNFGTQTYTCNVDHKPSNTKVDKTVERKCCVECPPCPAPPVAGPSVFLFPPKPKDTLMISRTPEVTCVVVDVVHEDPEVQFNWYVDGVEVHNAKTKPREEQFNGTFRVVSVLTVVHQDWLNGKEYKCKVSNKGWPAPIEKTISKTKGQPREPQVYTLPPSREEMTKNQVSLTCLVKGFYPSDIAVEWESNGQPENNYKTTPPMLDSDGSFFLYSKLTVDKSRWQQGNVFSCSVMHEALHNHYTQKSLSLSPGK
light: EIVLTQSPGTLSLSPGERATLSCRASQSVSGDYLAWYQQKLGQAPRLLIYGASIRATGIPDRFSGSGSGTDFTLTISKLEPEDFAVYYCQQYGSSPLTFGGGTKVEIKRTVAAPSVFIFPPSDEQLKSGTASVVCLLNNFYPREAKVQWKVDNALQSGNSQESVTEQDSKDSTYSLSSTLTLSKADYEKHKVYACEVTHQGLSSPVTKSFNRGEC
notes: as for B1
Regarding B2, in test [1], the Absorbance value amounted to 0.32 A650, the “Increased factor of RIIB binding” value is 4.23 fold and the “Relative binding affinity RIIB/G1” value was determined as 0.42 ratio. In test [2], the Absorbance value turned out to be 0.16 A650 and the “Relative binding affinity RI/G1” value was 0.06 ratio. In test [3], the Absorbance value turned out to be 0.06 A650 and the “Relative binding affinity RIIIAV/G1” value turned out to be 0.06 ratio. Moreover, in test [4], the Absorbance value was found to be 0.06 A650 and the “Relative binding affinity RIIIAF/G1” value amounted to 0.31 ratio. For the same molecule, in test [5], the Absorbance value amounted to 0.09 A650 and the “Relative binding affinity RIIAH/G1” value is 0.16 ratio. Also, in test [6], the Absorbance value is 0.11 A650 and the “Relative binding affinity RIIAR/G1” value worked out at 0.41 ratio. In test [7], the RIIB/RIIAR came to 1.03 ratio.

B3: anti-human OX40 IgG2 antibody Mut_20 (V266L/S267E/H268S/E269A/P271C) (antibody, name in EU numbering)
heavy: QVQLQESGPGLVKPSGTLSLTCAVSGGSISSSIWWSWVRQPPGKGLEWIGEIHHSGNTNCNPSLKSRVTISIDKSKNQFSLKLTSVTAADTAVYYCARAGTGTTLDYWGQGTLVTVSSASTKGPSVFPLAPCSRSTSESTAALGCLVKDYFPEPVTVSWNSGALTSGVHTFPAVLQSSGLYSLSSVVTVPSSNFGTQTYTCNVDHKPSNTKVDKTVERKCCVECPPCPAPPVAGPSVFLFPPKPKDTLMISRTPEVTCVVVDLESADCEVQFNWYVDGVEVHNAKTKPREEQFNSTFRVVSVLTVVHQDWLNGKEYKCKVSNKGLPAPIEKTISKTKGQPREPQVYTLPPSREEMTKNQVSLTCLVKGFYPSDIAVEWESNGQPENNYKTTPPMLDSDGSFFLYSKLTVDKSRWQQGNVFSCSVMHEALHNHYTQKSLSLSPGK
light: EIVLTQSPGTLSLSPGERATLSCRASQSVSGDYLAWYQQKLGQAPRLLIYGASIRATGIPDRFSGSGSGTDFTLTISKLEPEDFAVYYCQQYGSSPLTFGGGTKVEIKRTVAAPSVFIFPPSDEQLKSGTASVVCLLNNFYPREAKVQWKVDNALQSGNSQESVTEQDSKDSTYSLSSTLTLSKADYEKHKVYACEVTHQGLSSPVTKSFNRGEC
notes: as for B1
On to B3, for which, in test [1], the Absorbance value amounted to 1.13 A650, the “Increased factor of RIIB binding” value was found to be 15.1 fold and the “Relative binding affinity RIIB/G1” value stood at 1.5 ratio. Further, in test [2], the Absorbance value stood at 0.12 A650 and the “Relative binding affinity RI/G1” value was 0.05 ratio. Further, in test [3], the Absorbance value came to 0.05 A650 and the “Relative binding affinity RIIIAV/G1” value was 0.06 ratio. For the same molecule, in test [4], the Absorbance value is 0.06 A650 and the “Relative binding affinity RIIIAF/G1” value turned out to be 0.31 ratio. Moreover, in test [5], the Absorbance value came out at 0.48 A650 and the “Relative binding affinity RIIAH/G1” value was found to be 0.85 ratio. For the same molecule, in test [6], the Absorbance value stood at 0.46 A650 and the “Relative binding affinity RIIAR/G1” value worked out at 1.76 ratio. In addition, the RIIB/RIIAR in test [7] was 0.85 ratio.

B4: anti-human OX40 IgG2 antibody Mut_19 (V266L/S267E/H268S/E269V/P271C) (antibody, name in EU numbering)
heavy: QVQLQESGPGLVKPSGTLSLTCAVSGGSISSSIWWSWVRQPPGKGLEWIGEIHHSGNTNCNPSLKSRVTISIDKSKNQFSLKLTSVTAADTAVYYCARAGTGTTLDYWGQGTLVTVSSASTKGPSVFPLAPCSRSTSESTAALGCLVKDYFPEPVTVSWNSGALTSGVHTFPAVLQSSGLYSLSSVVTVPSSNFGTQTYTCNVDHKPSNTKVDKTVERKCCVECPPCPAPPVAGPSVFLFPPKPKDTLMISRTPEVTCVVVDLESVDCEVQFNWYVDGVEVHNAKTKPREEQFNSTFRVVSVLTVVHQDWLNGKEYKCKVSNKGLPAPIEKTISKTKGQPREPQVYTLPPSREEMTKNQVSLTCLVKGFYPSDIAVEWESNGQPENNYKTTPPMLDSDGSFFLYSKLTVDKSRWQQGNVFSCSVMHEALHNHYTQKSLSLSPGK
light: EIVLTQSPGTLSLSPGERATLSCRASQSVSGDYLAWYQQKLGQAPRLLIYGASIRATGIPDRFSGSGSGTDFTLTISKLEPEDFAVYYCQQYGSSPLTFGGGTKVEIKRTVAAPSVFIFPPSDEQLKSGTASVVCLLNNFYPREAKVQWKVDNALQSGNSQESVTEQDSKDSTYSLSSTLTLSKADYEKHKVYACEVTHQGLSSPVTKSFNRGEC
notes: as for B1
B4: in test [1], the Absorbance value came out at 0.82 A650, the “Increased factor of RIIB binding” value was 11 fold and the “Relative binding affinity RIIB/G1” value worked out at 1.09 ratio. In test [2], the Absorbance value amounted to 0.11 A650 and the “Relative binding affinity RI/G1” value was found to be 0.04 ratio. In addition, in test [3], the Absorbance value was 0.07 A650 and the “Relative binding affinity RIIIAV/G1” value was found to be 0.07 ratio. In test [4], the Absorbance value is 0.07 A650 and the “Relative binding affinity RIIIAF/G1” value was determined as 0.38 ratio. Further, in test [5], the Absorbance value turned out to be 0.33 A650 and the “Relative binding affinity RIIAH/G1” value worked out at 0.58 ratio. Also, in test [6], the Absorbance value amounted to 0.28 A650 and the “Relative binding affinity RIIAR/G1” value is 1.08 ratio. For the same molecule, the RIIB/RIIAR in test [7] turned out to be 1 ratio.

For the origin of these results see patent publication US20230220042A1 (SHANGHAI JIAO TONG UNIVERSITY SCHOOL OF MEDICINE, published 2023).
